Experimental data from paper PMC4864540, “Isolation and Characterization of a Broad Spectrum Bacteriocin from Bacillus amyloliquefaciens RX7” (BioMed Research International, 2016).

What was measured:
[1] = system: L. monocytogenes ATCC 19114; test: pH stability of antimicrobial activity; type: physicochemical, Listeria monocytogenes; details: for Residual activity (%): 2 h at 37°C, residual activity against L. monocytogenes ATCC 19114
Description: (§1) To evaluate pH stability, the pH of crude bacteriocin solution was adjusted with 1 N HCl and 1 N NaOH and readjusted to pH 7 after incubation for 2 h at 37°C. To evaluate thermal stability, the crude bacteriocin solution was incubated at 4, 37, 50, 80, and 100°C for 15–30 minutes. All samples were cooled to room temperature before activity assays. To analyze sensitivity to various enzymes, the crude bacteriocin solution was treated at 37°C for 2 h with 10 mg/mL (final concentration) of the following enzymes: α-amylase, α-chymotrypsin, lipase, proteinase-K, pepsin, or trypsin. All enzymes used were from Sigma (USA) and Takara (Japan). The samples were then boiled for 2 min to denature the enzymes and cooled to room temperature. Samples were exposed to various organic solvents at a final concentration of 10% (v/v) to explore their effects on bacteriocin activity. After incubation for 2 h at 37°C, the residual activity was recorded. All treated samples were tested for residual activity against L. monocytogenes ATCC 19114, as described above.

[2] = system: L. monocytogenes ATCC 19114; test: Thermal stability of antimicrobial activity; type: physicochemical, Listeria monocytogenes; details: cooled to room temperature, residual activity vs before treatment, against L. monocytogenes ATCC 19114
Description: as §1

[3] = system: L. monocytogenes ATCC 19114; test: Effect of organic solvents on antimicrobial activity; type: physicochemical, Listeria monocytogenes; details: 2 h at 37°C, residual activity against L. monocytogenes ATCC 19114
Description: as §1

[4] = biological target: T1, proteinase-K (Parengyodontium album, UniProt P06873); test: Effect of enzyme treatment on antimicrobial activity; type: in vitro ADME; details: Proteinase-K 10 mg/mL, 37°C, 2 h, then boiled 2 min; residual antimicrobial activity vs before treatment, against L. monocytogenes ATCC 19114
T1 construct: purchased Sigma (USA) and Takara (Japan)
T1 sequence (P06873 106-384): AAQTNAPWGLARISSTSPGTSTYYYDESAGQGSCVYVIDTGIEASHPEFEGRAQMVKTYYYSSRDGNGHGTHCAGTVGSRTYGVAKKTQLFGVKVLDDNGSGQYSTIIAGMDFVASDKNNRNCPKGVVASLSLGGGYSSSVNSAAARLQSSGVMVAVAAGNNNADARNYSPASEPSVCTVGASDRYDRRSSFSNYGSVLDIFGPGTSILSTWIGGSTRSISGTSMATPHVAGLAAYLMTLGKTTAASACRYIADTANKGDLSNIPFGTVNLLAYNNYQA
Description: as §1

[5] = biological target: T2, pepsin (Sus scrofa, UniProt P00791); test: as above; type: in vitro ADME; details: Pepsin 10 mg/mL, 37°C, 2 h, then boiled 2 min; residual antimicrobial activity vs before treatment, against L. monocytogenes ATCC 19114
T2 construct: purchased Sigma (USA) and Takara (Japan)
T2 sequence (P00791 60-385): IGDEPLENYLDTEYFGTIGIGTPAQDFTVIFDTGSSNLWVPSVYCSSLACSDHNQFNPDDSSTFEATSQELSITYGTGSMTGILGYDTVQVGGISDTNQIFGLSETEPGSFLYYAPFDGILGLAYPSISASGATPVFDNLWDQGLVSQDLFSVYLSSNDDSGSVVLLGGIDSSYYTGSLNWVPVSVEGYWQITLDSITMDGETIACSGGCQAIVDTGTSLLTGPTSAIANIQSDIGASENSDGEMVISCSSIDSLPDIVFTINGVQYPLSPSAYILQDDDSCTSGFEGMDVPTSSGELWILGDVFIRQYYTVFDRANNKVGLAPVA
Description: as §1

[6] = system: α-amylase; test: as above; type: in vitro ADME; details: α-Amylase 10 mg/mL, 37°C, 2 h, then boiled 2 min; residual antimicrobial activity vs before treatment, against L. monocytogenes ATCC 19114
Description: as §1

[7] = biological target: T3, α-chymotrypsin (Bos taurus, UniProt P00766); test: as above; type: in vitro ADME; details: α-Chymotrypsin 10 mg/mL, 37°C, 2 h, then boiled 2 min; residual antimicrobial activity vs before treatment, against L. monocytogenes ATCC 19114
T3 construct: purchased Sigma (USA) and Takara (Japan)
Description: as §1

[8] = system: trypsin; test: as above; type: in vitro ADME; details: Trypsin 10 mg/mL, 37°C, 2 h, then boiled 2 min; residual antimicrobial activity vs before treatment, against L. monocytogenes ATCC 19114
Description: as §1

[9] = system: lipase; test: as above; type: in vitro ADME; details: Lipase 10 mg/mL, 37°C, 2 h, then boiled 2 min; residual antimicrobial activity vs before treatment, against L. monocytogenes ATCC 19114
Description: as §1

[10] = system: L. monocytogenes ATCC 19114; test: Mode of action, time-kill study (viable cell count); type: cell-based, Listeria monocytogenes; details: 80 AU/mL added to L. monocytogenes at 4.2 × 10^8 CFU/mL, mid-exponential phase, viable counts at 1-hour intervals, mean of three experiments
Description: To determine the mode of action of the bacteriocin, the crude bacteriocin was added at a final concentration of 80 AU/mL to the culture at the mid-exponential growth phase of L. monocytogenes ATCC 19114 in 20 mL of TSB medium. Viable cells were counted at 1-hour intervals for the next 8 hours. Viable cell counting was repeated in triplicate and the mean values were calculated.

[11] = system: Salmonella enteritidis KVCC-BA0700654; test: Agar well diffusion assay; type: cell-based; details: cell-free supernatant, medium NB
Description: (§2) Soil samples were collected from a farm in Cheonan city, Korea. They were mixed with sterile water (1 : 10, w/v), homogenized, and heated at 50°C for 60 min in a water bath. One mL of this suspension was inoculated into 100 mL of tryptic soy broth (Difco, USA) and incubated at 50°C for 24 h, after which microbial growth was monitored based on changes in turbidity of the cultures. Aliquots of the cultures were inoculated onto TSB plates, incubated at 30°C, and single colonies were isolated and screened for antimicrobial activity. The antimicrobial activity was performed according to Ramachandran et al. with modifications. It was expressed as the diameter of the inhibition zones around the wells using agar well diffusion assays with Listeria monocytogenes ATCC 19114 as the indicator strain.
(§3) Antimicrobial activity was detected using the agar well diffusion assay and tested against all indicator strains (Table 1) grown in their respective media, as indicated (Difco, USA). An aliquot of culture was centrifugated at 6,000 g for 15 min at 4°C (Mega 21R, Hanil Co., Republic of Korea), filtered using 0.45 μm pore-size cellulose acetate syringe filters (Advantec Co., Japan) to remove cells, then applied to wells on agar plates. Experiments were done in no less than five individual trials having no less than three replications.
(§4) The plates were incubated at the optimal temperature of the test organism. The bacteriocin titer was determined using the serial twofold dilution method. Activity was defined as the reciprocal of the dilution after the last serial dilution giving a zone of inhibition and was expressed as activity units (AU) per milliliter. All measurements were done in triplicate and the means are shown as the results.

[12] = system: Lactobacillus delbrueckii KCCM 11357; test: Agar well diffusion assay; type: cell-based; details: cell-free supernatant, medium MRS
Description: as §2, §3, §4

[13] = system: Staphylococcus aureus KFRI 00188; test: Agar well diffusion assay; type: cell-based; details: cell-free supernatant, medium NB
Description: as §2, §3, §4

[14] = system: Staphylococcus aureus subsp. aureus (MRSA) KCCM 40510; test: Agar well diffusion assay; type: cell-based; details: cell-free supernatant, medium NB
Description: as §2, §3, §4

[15] = system: Lactobacillus johnsonii PF01 (our isolate); test: Agar well diffusion assay; type: cell-based; details: cell-free supernatant, medium MRS
Description: as §2, §3, §4

[16] = system: Pseudomonas aeruginosa CCARM 2003; test: Agar well diffusion assay; type: cell-based; details: cell-free supernatant, medium LB
Description: as §2, §3, §4

[17] = system: Pseudomonas aeruginosa KCCM 11266; test: Agar well diffusion assay; type: cell-based; details: cell-free supernatant, medium NB
Description: as §2, §3, §4

[18] = system: Salmonella pullorum KVCC-BA0702509; test: Agar well diffusion assay; type: cell-based; details: cell-free supernatant, medium NB
Description: as §2, §3, §4

[19] = system: Klebsiella pneumoniae subsp. pneumoniae KCCM 11418; test: Agar well diffusion assay; type: cell-based; details: cell-free supernatant, medium NB
Description: as §2, §3, §4

[20] = system: Lactobacillus plantarum KCCM 11322; test: Agar well diffusion assay; type: cell-based; details: cell-free supernatant, medium MRS
Description: as §2, §3, §4

[21] = system: Escherichia coli K88; test: Agar well diffusion assay; type: cell-based; details: cell-free supernatant, medium LB
Description: as §2, §3, §4

[22] = system: Salmonella gallinarum KVCC-BA0700722; test: Agar well diffusion assay; type: cell-based; details: cell-free supernatant, medium NB
Description: as §2, §3, §4

[23] = system: Bacillus cereus KCTC 1661; test: Agar well diffusion assay; type: cell-based; details: cell-free supernatant, medium LB
Description: as §2, §3, §4

[24] = system: Salmonella typhimurium KCCM 40253; test: Agar well diffusion assay; type: cell-based; details: cell-free supernatant, medium NB
Description: as §2, §3, §4

[25] = system: Shigella flexneri KCCM 40414; test: Agar well diffusion assay; type: cell-based; details: cell-free supernatant, medium NB
Description: as §2, §3, §4

[26] = system: Enterococcus faecalis (VRE) CCARM 0011; test: Agar well diffusion assay; type: cell-based; details: cell-free supernatant, medium NB
Description: as §2, §3, §4

[27] = system: Streptococcus agalactiae ATCC 13813; test: Agar well diffusion assay; type: cell-based; details: cell-free supernatant, medium TSB
Description: as §2, §3, §4

[28] = system: Candida albicans KCTC 7122; test: Agar well diffusion assay; type: cell-based; details: cell-free supernatant, medium PDA
Description: as §2, §3, §4

[29] = system: Lactobacillus acidophilus KCCM 32820; test: Agar well diffusion assay; type: cell-based; details: cell-free supernatant, medium MRS
Description: as §2, §3, §4

[30] = system: Bacillus licheniformis KCCM 12145; test: Agar well diffusion assay; type: cell-based; details: cell-free supernatant, medium NB
Description: as §2, §3, §4

[31] = system: Lactobacillus salivarius CPM7 (our isolate); test: Agar well diffusion assay; type: cell-based; details: cell-free supernatant, medium MRS
Description: as §2, §3, §4

[32] = system: Salmonella enteritidis KCCM 12021; test: Agar well diffusion assay; type: cell-based; details: cell-free supernatant, medium NB
Description: as §2, §3, §4

[33] = system: Listeria monocytogenes ATCC 19114; test: Agar well diffusion assay; type: cell-based; details: cell-free supernatant, medium TSB
Description: as §2, §3, §4

[34] = system: Streptococcus mutans ATCC 25175; test: Agar well diffusion assay; type: cell-based; details: cell-free supernatant, medium BHI
Description: as §2, §3, §4

NH2-X-Ala-Trp-Tyr-Asp-Ile-Arg-Lys-Leu-Gly-Asn-Lys-Gly-Ala [RX7 bacteriocin, Bacteriocin of approximately 5 kDa produced by Bacillus amyloliquefaciens RX7; homologous to lantibiotic haloduracin A1]
pH range in which full activity was observed ([1]; 2 h at 37°C at the given pH, readjusted to pH 7, activity against L. monocytogenes ATCC 19114): 3–8 | Residual activity (%) ([1]; pH 1 (1 N HCl/1 N NaOH), readjusted to pH 7): 80% | Residual activity (%) ([1]; pH 2 (1 N HCl/1 N NaOH), readjusted to pH 7): 90% | Residual activity (%) ([1]; pH 3 (1 N HCl/1 N NaOH), readjusted to pH 7): 100% | Residual activity (%) ([1]; pH 4 (1 N HCl/1 N NaOH), readjusted to pH 7): 100% | Residual activity (%) ([1]; pH 5 (1 N HCl/1 N NaOH), readjusted to pH 7): 100% | Residual activity (%) ([1]; pH 6 (1 N HCl/1 N NaOH), readjusted to pH 7): 100% | Residual activity (%) ([1]; pH 7 (1 N HCl/1 N NaOH)): 100% | Residual activity (%) ([1]; pH 8 (1 N HCl/1 N NaOH), readjusted to pH 7): 100% | Residual activity (%) ([1]; pH 9 (1 N HCl/1 N NaOH), readjusted to pH 7): 90% | Residual activity (%) ([1]; pH 10 (1 N HCl/1 N NaOH), readjusted to pH 7): 80% | Residual activity (%) ([2]; heat 4°C/30 min): 100% | Residual activity (%) ([2]; heat 37°C/30 min): 100% | Residual activity (%) ([2]; heat 50°C/30 min): 100% | Residual activity (%) ([2]; heat 80°C/30 min): 100% | Residual activity (%) ([2]; heat 100°C/30 min): 80% | Residual activity (%) ([2]; heat 121°C/15 min): 20% | Residual activity (%) ([3]; Acetone 10% (v/v)): 90% | Residual activity (%) ([3]; Acetonitrile 10% (v/v)): 90% | Residual activity (%) ([3]; Butanol 10% (v/v)): 80% | Residual activity (%) ([3]; Chloroform 10% (v/v)): 80% | Residual activity (%) ([3]; Ethanol 10% (v/v)): 90% | Residual activity (%) ([3]; Methanol 10% (v/v)): 80% | Residual activity (%) [4]: 0% | Residual activity (%) [5]: 100% | Residual activity (%) [6]: 100% | Residual activity (%) [7]: 0% | Residual activity (%) [8]: 0% | Residual activity (%) [9]: 100% | incubation time for complete bactericidal action (no colony formation on TSB agar) [10]: 2 h | Inhibition zone (mm) [11]: ++ (less than 20 mm) | Inhibition zone (mm) [12]: + (less than 10 mm) | Inhibition zone (mm) [13]: ++ (less than 20 mm) | Inhibition zone (mm) [14]: + (less than 10 mm) | Inhibition zone (mm) [15]: + (less than 10 mm) | Inhibition zone (mm) [16]: ++ (less than 20 mm) | Inhibition zone (mm) [17]: ++ (less than 20 mm) | Inhibition zone (mm) [18]: + (less than 10 mm) | Inhibition zone (mm) [19]: + (less than 10 mm) | Inhibition zone (mm) [20]: + (less than 10 mm) | Inhibition zone (mm) [21]: ++ (less than 20 mm) | Inhibition zone (mm) [22]: ++ (less than 20 mm) | Inhibition zone (mm) [23]: ++ (less than 20 mm) | Inhibition zone (mm) [24]: ++ (less than 20 mm) | Inhibition zone (mm) [25]: ++ (less than 20 mm) | Inhibition zone (mm) [26]: ++ (less than 20 mm) | Inhibition zone (mm) [27]: ++ (less than 20 mm) | Inhibition zone (mm) [28]: ++ (less than 20 mm) | Inhibition zone (mm) [29]: + (less than 10 mm) | Inhibition zone (mm) [30]: ++ (less than 20 mm) | Inhibition zone (mm) [31]: + (less than 10 mm) | Inhibition zone (mm) [32]: ++ (less than 20 mm) | Inhibition zone (mm) [33]: +++ (less than 30 mm) | Inhibition zone (mm) [34]: + (less than 10 mm)
